From patent US20240410900A1

Legend:
[1] = target: non-targeted IgG-IL2 (interleukin-2 fused to the C-terminus of a heavy chain of a germline antibody, which is not binding to a target); assay: bridging ELISA, IgG-IL2-Bi and -Dig, binder 31 ng/mL assay / 625 ng/mL matrix
[2] = target: drug antibody (capture and tracer of the bridging immunoassay of FIGS. 2, 7 and 8; not named); assay: bridging immunoassay, drug antibody as capture and tracer, binder at 80 ng/ml
[3] = target: non-targeted IgG-IL2 (interleukin-2 fused to the C-terminus of a heavy chain of a germline antibody, which is not binding to a target); assay: bridging ELISA, IgG-IL2-Bi and -Dig, binder 0.03 ng/mL assay / 0.6 ng/mL matrix
[4] = target: non-targeted IgG-IL2 (interleukin-2 fused to the C-terminus of a heavy chain of a germline antibody, which is not binding to a target); assay: bridging ELISA, IgG-IL2-Bi and -Dig, binder 250 ng/mL assay / 5000 ng/mL matrix
[5] = target: non-targeted IgG-IL2 (interleukin-2 fused to the C-terminus of a heavy chain of a germline antibody, which is not binding to a target); assay: bridging ELISA, IgG-IL2-Bi and -Dig, binder 500 ng/mL assay / 10000 ng/mL matrix
[6] = target: TCB (T-cell bispecific format) drug antibody; assay: bridging ELISA, drug-Bi and drug-Dig, human pooled serum, binder 1.0 ng/mL assay / 20 ng/mL matrix
[7] = target: non-targeted IgG-IL2 (interleukin-2 fused to the C-terminus of a heavy chain of a germline antibody, which is not binding to a target); assay: as above
[8] = target: targeted IgG-IL2 (interleukin-2 fused to the C-terminus of a heavy chain of an antibody specifically binding to a therapeutic target); assay: as above
[9] = target: TCB (T-cell bispecific format) drug antibody; assay: bridging ELISA, drug-Bi and drug-Dig, human pooled serum, binder 2.0 ng/mL assay / 39 ng/mL matrix
[10] = target: non-targeted IgG-IL2 (interleukin-2 fused to the C-terminus of a heavy chain of a germline antibody, which is not binding to a target); assay: as above
[11] = target: targeted IgG-IL2 (interleukin-2 fused to the C-terminus of a heavy chain of an antibody specifically binding to a therapeutic target); assay: as above
[12] = target: TCB (T-cell bispecific format) drug antibody; assay: bridging ELISA, drug-Bi and drug-Dig, human pooled serum, binder 3.9 ng/mL assay / 78 ng/mL matrix
[13] = target: non-targeted IgG-IL2 (interleukin-2 fused to the C-terminus of a heavy chain of a germline antibody, which is not binding to a target); assay: as above
[14] = target: targeted IgG-IL2 (interleukin-2 fused to the C-terminus of a heavy chain of an antibody specifically binding to a therapeutic target); assay: as above
[15] = target: TCB (T-cell bispecific format) drug antibody; assay: bridging ELISA, drug-Bi and drug-Dig, human pooled serum, binder 31 ng/mL assay / 625 ng/mL matrix
[16] = target: non-targeted IgG-IL2 (interleukin-2 fused to the C-terminus of a heavy chain of a germline antibody, which is not binding to a target); assay: as above
[17] = target: targeted IgG-IL2 (interleukin-2 fused to the C-terminus of a heavy chain of an antibody specifically binding to a therapeutic target); assay: as above
[18] = target: TCB (T-cell bispecific format) drug antibody; assay: bridging ELISA, drug-Bi and drug-Dig, human pooled serum, binder 0.49 ng/mL assay / 10 ng/mL matrix
[19] = target: non-targeted IgG-IL2 (interleukin-2 fused to the C-terminus of a heavy chain of a germline antibody, which is not binding to a target); assay: as above
[20] = target: targeted IgG-IL2 (interleukin-2 fused to the C-terminus of a heavy chain of an antibody specifically binding to a therapeutic target); assay: as above
[21] = target: TCB (T-cell bispecific format) drug antibody; assay: bridging ELISA, drug-Bi and drug-Dig, human pooled serum, binder 0.03 ng/mL assay / 0.6 ng/mL matrix
[22] = target: non-targeted IgG-IL2 (interleukin-2 fused to the C-terminus of a heavy chain of a germline antibody, which is not binding to a target); assay: as above
[23] = target: targeted IgG-IL2 (interleukin-2 fused to the C-terminus of a heavy chain of an antibody specifically binding to a therapeutic target); assay: as above
[24] = target: TCB (T-cell bispecific format) drug antibody; assay: bridging ELISA, drug-Bi and drug-Dig, human pooled serum, binder 500 ng/mL assay / 10000 ng/mL matrix
[25] = target: non-targeted IgG-IL2 (interleukin-2 fused to the C-terminus of a heavy chain of a germline antibody, which is not binding to a target); assay: as above
[26] = target: targeted IgG-IL2 (interleukin-2 fused to the C-terminus of a heavy chain of an antibody specifically binding to a therapeutic target); assay: as above

B1: multivalent anti-PG antibody derived from clone 1.7.24 (mixed Pool 2, 3, 4) (antibody, V domains shown)
VH: EVKLLESGGGLVQPGGSLKLSCAASGFDFSRYWMNWVRQAPGKGLEWIGEITPDSSTINYTPSLKDKFIISRDNAKNTLYLQMIKVRSEDTALYYCVRPYDYGAWFASWGQGTLVTVSA
VL: QAVVTQESALTTSPGETVTLTCRSSTGAVTTSNYANWVQEKPDHLFTGLIGGTNKRAPGVPARFSGSLIGDKAALTITGAQTEDEAIYFCALWYSNHWVFGGGTKLTVL
modifications: lysine amines derivatised with SATP or MHS and cross-linked (sites not given)
signal [AU] [1]: 1.89 AU
signal-to-noise ratio (S/N) [2]: 4.5
signal [AU] [3]: 0.0525 AU
signal [AU] [4]: 3.04 AU
signal [AU] [5]: 3.09 AU
signal [AU] [6]: 0.12 AU
signal [AU] [7]: 0.0485 AU
signal [AU] [8]: 0.0975 AU
signal [AU] [9]: 0.195 AU
signal [AU] [10]: 0.0615 AU
signal [AU] [11]: 0.148 AU
signal [AU] [12]: 0.35 AU
signal [AU] [13]: 0.088 AU
signal [AU] [14]: 0.261 AU
signal [AU] [15]: 2.09 AU
signal [AU] [16]: 0.408 AU
signal [AU] [17]: 1.65 AU
signal [AU] [18]: 0.0835 AU
signal [AU] [19]: 0.045 AU
signal [AU] [20]: 0.0675 AU
signal [AU] [21]: 0.0455 AU
signal [AU] [22]: 0.0425 AU
signal [AU] [23]: 0.04 AU
signal [AU] [24]: 2.99 AU
signal [AU] [25]: 2.81 AU
signal [AU] [26]: 3.01 AU
